# Source: publication PMC6048692 (Chemical Science, 2018)
# Tests used:
# SEC = molecular target: the molecule itself; assay: SEC
# [1] = molecular target: the molecule itself; assay: MoTag2 comet formation, MT plus end tracking
Protein,stoichiometry N (SEC),stoichiometry N [1]
DsRed fused to MoTag2 (natural protein) MRSSKNVIKEFMRFKVRMEGTVNGHEFEIEGEGEGRPYEGHNTVKLKVTKGGPLPFAWDILSPQFQYGSKVYVKHPADIPDYKKLSFPEGFKWERVMNFEDGGVVTVTQDSSLQDGCFIYKVKFIGVNFPSDGPVMQKKTMGWEASTERLYPRDGVLKGEIHKALKLKDGGHYLVEFKSIYMAKKPVQLPGYYYVDSKLDITSHNEDYTIVEQYERTEGRHHLFL,4,–
"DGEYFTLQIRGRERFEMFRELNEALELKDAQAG (domain or fragment) [p53 tetramerization domain (TD), p53 324-356, fused with MoTag2]",–,4
